The sequences below were run on Escherichia coli TOP10 (assay: shrunken log2 fold change of peptide-encoding DNA abundance (4.5 h post-induction vs induction); higher = less antimicrobial activity (less host growth inhibition)). Details: time post-induction: 4.5 h; library: site-saturation at positions 5, 18, 19, 20.
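Also: peptides expressed intracellularly from a pBAD plasmid library in pooled LB shake-flask culture, induced with 0.3% L-arabinose, DNA abundance read by NGS, three biological replicates, DESeq2 with apeglm shrinkage.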

| Sequence | shrunken log2 fold change |
| --- | --- |
| RRIRIRPPRLPRPRPRPAKGPRP | -0.224 |
| RRIRIRPPRLPRPRPRPAKMPRP | -0.101 |
| RRIRIRPPRLPRPRPRPALMPRP | -0.028 |
| RRIRIRPPRLPRPRPRPALSPRP | 0.114 |
| RRIRIRPPRLPRPRPRPANTPRP | 0.027 |
| RRIRIRPPRLPRPRPRPAPIPRP | -0.0266 |
| RRIRIRPPRLPRPRPRPAPNPRP | 0.0272 |
| RRIRIRPPRLPRPRPRPAQHPRP | -0.0384 |
| RRIRIRPPRLPRPRPRPASEPRP | 0.149 |
| RRIRIRPPRLPRPRPRPASWPRP | 0.0913 |
| RRIRIRPPRLPRPRPRPATIPRP | -0.201 |
| RRIRIRPPRLPRPRPRPATNPRP | -0.339 |
| RRIRIRPPRLPRPRPRPAWQPRP | 0.342 |
| RRIRIRPPRLPRPRPRPCACPRP | -0.889 |
| RRIRIRPPRLPRPRPRPCAVPRP | -0.431 |
| RRIRIRPPRLPRPRPRPCELPRP | -0.254 |
| RRIRIRPPRLPRPRPRPCEQPRP | 0.0927 |
| RRIRIRPPRLPRPRPRPCETPRP | 0.105 |
| RRIRIRPPRLPRPRPRPCFGPRP | -0.415 |
| RRIRIRPPRLPRPRPRPCFHPRP | -0.532 |
| RRIRIRPPRLPRPRPRPCFTPRP | -0.519 |
| RRIRIRPPRLPRPRPRPCGDPRP | -0.0271 |
| RRIRIRPPRLPRPRPRPCHLPRP | -0.281 |
| RRIRIRPPRLPRPRPRPCIDPRP | -0.0398 |
| RRIRIRPPRLPRPRPRPCKLPRP | -0.167 |

| Sequence | shrunken log2 fold change |
| --- | --- |
| RRIRIRPPRLPRPRPRPCKWPRP | -0.38 |
| RRIRIRPPRLPRPRPRPCNCPRP | 0.174 |
| RRIRIRPPRLPRPRPRPCQNPRP | -0.282 |
| RRIRIRPPRLPRPRPRPCQVPRP | -0.0176 |
| RRIRIRPPRLPRPRPRPCRKPRP | -0.0747 |
| RRIRIRPPRLPRPRPRPCSGPRP | -0.852 |
| RRIRIRPPRLPRPRPRPCSIPRP | -0.012 |
| RRIRIRPPRLPRPRPRPCTPPRP | -0.719 |
| RRIRIRPPRLPRPRPRPCVKPRP | -0.828 |
| RRIRIRPPRLPRPRPRPCVTPRP | -0.22 |
| RRIRIRPPRLPRPRPRPCVVPRP | -0.00586 |
| RRIRIRPPRLPRPRPRPCWDPRP | -0.0479 |
| RRIRIRPPRLPRPRPRPCYFPRP | -0.906 |
| RRIRIRPPRLPRPRPRPCYRPRP | -0.44 |
| RRIRIRPPRLPRPRPRPDAYPRP | -0.0729 |
| RRIRIRPPRLPRPRPRPDCYPRP | -0.226 |
| RRIRIRPPRLPRPRPRPDDGPRP | -0.184 |
| RRIRIRPPRLPRPRPRPDEDPRP | -0.00875 |
| RRIRIRPPRLPRPRPRPDEEPRP | -0.00176 |
| RRIRIRPPRLPRPRPRPDEHPRP | -0.272 |
| RRIRIRPPRLPRPRPRPDEIPRP | 0.1 |
| RRIRIRPPRLPRPRPRPDEMPRP | -0.15 |
| RRIRIRPPRLPRPRPRPDEQPRP | 0.0601 |
| RRIRIRPPRLPRPRPRPDESPRP | -0.172 |
| RRIRIRPPRLPRPRPRPDFEPRP | -0.39 |

| Sequence | shrunken log2 fold change |
| --- | --- |
| RRIRIRPPRLPRPRPRPDFKPRP | 3.01 |
| RRIRIRPPRLPRPRPRPDFPPRP | 0.058 |
| RRIRIRPPRLPRPRPRPDHCPRP | -0.0229 |
| RRIRIRPPRLPRPRPRPDIEPRP | -0.185 |
| RRIRIRPPRLPRPRPRPDNQPRP | -1.03 |
| RRIRIRPPRLPRPRPRPDNWPRP | -0.128 |
| RRIRIRPPRLPRPRPRPDNYPRP | -0.199 |
| RRIRIRPPRLPRPRPRPDPTPRP | -0.0575 |
| RRIRIRPPRLPRPRPRPDQSPRP | -0.138 |
| RRIRIRPPRLPRPRPRPDRAPRP | -0.169 |
| RRIRIRPPRLPRPRPRPDRGPRP | -0.0332 |
| RRIRIRPPRLPRPRPRPDRQPRP | 0.0357 |
| RRIRIRPPRLPRPRPRPDSHPRP | -0.379 |
| RRIRIRPPRLPRPRPRPDSYPRP | 0.072 |
| RRIRIRPPRLPRPRPRPDTLPRP | -0.658 |
| RRIRIRPPRLPRPRPRPDWLPRP | -0.166 |
| RRIRIRPPRLPRPRPRPDWTPRP | 0.0313 |
| RRIRIRPPRLPRPRPRPDYLPRP | -0.0127 |
| RRIRIRPPRLPRPRPRPEAAPRP | 0.538 |
| RRIRIRPPRLPRPRPRPECTPRP | -0.0501 |
| RRIRIRPPRLPRPRPRPEDGPRP | -0.00203 |
| RRIRIRPPRLPRPRPRPEDPPRP | 0.0426 |
| RRIRIRPPRLPRPRPRPEETPRP | -0.00208 |
| RRIRIRPPRLPRPRPRPEGDPRP | 0.574 |
| RRIRIRPPRLPRPRPRPEGIPRP | -0.0831 |

| Sequence | shrunken log2 fold change |
| --- | --- |
| RRIRIRPPRLPRPRPRPEHQPRP | -0.0287 |
| RRIRIRPPRLPRPRPRPEICPRP | -0.0162 |
| RRIRIRPPRLPRPRPRPEMHPRP | -0.328 |
| RRIRIRPPRLPRPRPRPENFPRP | -0.0605 |
| RRIRIRPPRLPRPRPRPENMPRP | -0.396 |
| RRIRIRPPRLPRPRPRPEPVPRP | 0.14 |
| RRIRIRPPRLPRPRPRPEQYPRP | -0.0765 |
| RRIRIRPPRLPRPRPRPERIPRP | 0.0552 |
| RRIRIRPPRLPRPRPRPESFPRP | -0.0048 |
| RRIRIRPPRLPRPRPRPEWDPRP | 0.054 |
| RRIRIRPPRLPRPRPRPEWSPRP | -0.26 |
| RRIRIRPPRLPRPRPRPEYYPRP | -0.198 |
| RRIRIRPPRLPRPRPRPFCQPRP | -0.412 |
| RRIRIRPPRLPRPRPRPFCYPRP | -0.514 |
| RRIRIRPPRLPRPRPRPFEHPRP | -0.321 |
| RRIRIRPPRLPRPRPRPFEMPRP | -0.22 |
| RRIRIRPPRLPRPRPRPFFYPRP | -0.416 |
| RRIRIRPPRLPRPRPRPFHIPRP | -0.127 |
| RRIRIRPPRLPRPRPRPFISPRP | -1.43 |
| RRIRIRPPRLPRPRPRPFIWPRP | -0.242 |
| RRIRIRPPRLPRPRPRPFLTPRP | -0.736 |
| RRIRIRPPRLPRPRPRPFMLPRP | -0.407 |
| RRIRIRPPRLPRPRPRPFNKPRP | -0.179 |
| RRIRIRPPRLPRPRPRPFPTPRP | 0.0232 |
| RRIRIRPPRLPRPRPRPFQSPRP | -0.469 |

| Sequence | shrunken log2 fold change |
| --- | --- |
| RRIRIRPPRLPRPRPRPFQYPRP | -0.0506 |
| RRIRIRPPRLPRPRPRPFRAPRP | -0.332 |
| RRIRIRPPRLPRPRPRPFRYPRP | -0.42 |
| RRIRIRPPRLPRPRPRPFSLPRP | -1.26 |
| RRIRIRPPRLPRPRPRPFTVPRP | -0.214 |
| RRIRIRPPRLPRPRPRPFVLPRP | -0.113 |
| RRIRIRPPRLPRPRPRPFVVPRP | -0.235 |
| RRIRIRPPRLPRPRPRPFWPPRP | -0.056 |
| RRIRIRPPRLPRPRPRPFYFPRP | -0.448 |
| RRIRIRPPRLPRPRPRPGAHPRP | -0.0753 |
| RRIRIRPPRLPRPRPRPGAMPRP | 0.046 |
| RRIRIRPPRLPRPRPRPGANPRP | 0.0193 |
| RRIRIRPPRLPRPRPRPGCCPRP | -0.04 |
| RRIRIRPPRLPRPRPRPGCNPRP | -0.247 |
| RRIRIRPPRLPRPRPRPGCTPRP | -0.268 |
| RRIRIRPPRLPRPRPRPGDEPRP | -0.0396 |
| RRIRIRPPRLPRPRPRPGEGPRP | 0.38 |
| RRIRIRPPRLPRPRPRPGETPRP | 0.0122 |
| RRIRIRPPRLPRPRPRPGFAPRP | 0.282 |
| RRIRIRPPRLPRPRPRPGKQPRP | -0.0943 |
| RRIRIRPPRLPRPRPRPGMCPRP | -0.238 |
| RRIRIRPPRLPRPRPRPGMHPRP | 0.00513 |
| RRIRIRPPRLPRPRPRPGPMPRP | 0.0608 |
| RRIRIRPPRLPRPRPRPGPYPRP | -0.376 |
| RRIRIRPPRLPRPRPRPGRPPRP | 0.398 |

| Sequence | shrunken log2 fold change |
| --- | --- |
| RRIRIRPPRLPRPRPRPGTYPRP | -0.0378 |
| RRIRIRPPRLPRPRPRPGVVPRP | -0.47 |
| RRIRIRPPRLPRPRPRPGWCPRP | -0.082 |
| RRIRIRPPRLPRPRPRPGWDPRP | 0.105 |
| RRIRIRPPRLPRPRPRPGYPPRP | -0.173 |
| RRIRIRPPRLPRPRPRPGYVPRP | -0.181 |
| RRIRIRPPRLPRPRPRPHAMPRP | -0.125 |
| RRIRIRPPRLPRPRPRPHDFPRP | 0.0334 |
| RRIRIRPPRLPRPRPRPHDWPRP | -0.317 |
| RRIRIRPPRLPRPRPRPHFPPRP | 0.00276 |
| RRIRIRPPRLPRPRPRPHHMPRP | -1.2 |
| RRIRIRPPRLPRPRPRPHHNPRP | -0.0464 |
| RRIRIRPPRLPRPRPRPHHPPRP | -0.629 |
| RRIRIRPPRLPRPRPRPHIMPRP | -1.41 |
| RRIRIRPPRLPRPRPRPHKHPRP | -0.881 |
| RRIRIRPPRLPRPRPRPHKKPRP | -0.0912 |
| RRIRIRPPRLPRPRPRPHKSPRP | -1.18 |
| RRIRIRPPRLPRPRPRPHLSPRP | -0.0549 |
| RRIRIRPPRLPRPRPRPHPTPRP | -0.216 |
| RRIRIRPPRLPRPRPRPHQIPRP | -0.423 |
| RRIRIRPPRLPRPRPRPHQKPRP | -0.0756 |
| RRIRIRPPRLPRPRPRPHQPPRP | -0.421 |
| RRIRIRPPRLPRPRPRPHQSPRP | -0.406 |
| RRIRIRPPRLPRPRPRPHRGPRP | -0.00841 |
| RRIRIRPPRLPRPRPRPHSKPRP | -0.677 |

— the supplement of paper PMC9112550, “Optimization of the antimicrobial peptide Bac7 by deep mutational scanning” (BMC Biology, 2022)
